The values below come from PMC5079630 (2016).

Bounds are passed on as bounds.

Common to all, as to assay: AUC
Test [1] deals with STAT2 N domain (aminoterminal domain), recombinant, mEGFP-tagged (human).
The target in test [2] is STAT2 N domain LL81,82AA, recombinant (human).
The target of test [3] is T1, STAT1 N domain (aminoterminal domain), recombinant.
T1 chain: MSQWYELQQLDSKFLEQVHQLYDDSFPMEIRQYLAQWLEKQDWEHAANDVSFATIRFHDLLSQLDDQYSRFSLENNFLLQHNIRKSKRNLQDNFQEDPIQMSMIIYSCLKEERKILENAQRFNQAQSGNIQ

Sequence of STAT2 N domain (aminoterminal domain), recombinant, mEGFP-tagged (human) (chain, as listed by the source): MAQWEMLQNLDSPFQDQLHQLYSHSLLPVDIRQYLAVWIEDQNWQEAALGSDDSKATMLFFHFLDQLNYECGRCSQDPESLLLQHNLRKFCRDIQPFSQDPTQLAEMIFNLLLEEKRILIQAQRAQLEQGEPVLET
Sequence of STAT2 N domain LL81,82AA, recombinant (human) (chain, as listed by the source): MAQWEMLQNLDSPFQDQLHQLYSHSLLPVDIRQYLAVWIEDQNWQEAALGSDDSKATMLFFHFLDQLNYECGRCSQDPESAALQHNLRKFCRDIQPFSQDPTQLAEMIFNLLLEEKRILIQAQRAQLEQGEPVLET

B1: STAT1 N domain (aminoterminal domain), recombinant (domain or fragment)
chain: T1 chain
modifications: limits not printed (S1 Text/ref. 22); N domain taken up to the start of the conventional STAT1 core fragment (132-713); Strep-tag omitted limits not given; N domain taken up to the start of the core region (P52630 region from 138), homologous to STAT1 1-131; mEGFP and Strep-tag omitted
As for B1, the Kd in test [1] was below 0.01 µM.

B2: STAT1 N domain (aminoterminal domain), recombinant (domain or fragment)
chain: T1 chain
modifications: limits not printed (S1 Text/ref. 22); N domain taken up to the start of the conventional STAT1 core fragment (132-713); Strep-tag omitted limits not given; same convention as m2; tags omitted
B2: the Kd in test [2] amounted to 5500 µM.

B3: STAT1 N domain (aminoterminal domain), recombinant (domain or fragment)
chain: T1 chain
modifications: limits not printed (S1 Text/ref. 22); N domain taken up to the start of the conventional STAT1 core fragment (132-713); Strep-tag omitted limits not printed (S1 Text/ref. 22); N domain taken up to the start of the conventional STAT1 core fragment (132-713); Strep-tag omitted
With B3, the Kd in test [3] came to 16.6 µM.

B4: STAT2 N domain (aminoterminal domain), recombinant, mEGFP-tagged (domain or fragment)
chain: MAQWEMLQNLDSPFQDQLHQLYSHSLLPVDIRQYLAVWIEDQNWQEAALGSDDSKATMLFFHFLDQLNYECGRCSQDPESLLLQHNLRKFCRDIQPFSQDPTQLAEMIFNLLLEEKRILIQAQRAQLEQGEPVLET
modifications: limits not given; N domain taken up to the start of the core region (P52630 region from 138), homologous to STAT1 1-131; mEGFP and Strep-tag omitted limits not given; N domain taken up to the start of the core region (P52630 region from 138), homologous to STAT1 1-131; mEGFP and Strep-tag omitted
Turning to B4, in test [1], the Kd is 705 µM.
